{
  "source": "paper PMC11961569",
  "biological_target": "EfpA^EM (BRIL-P171R EfpA, Mycobacterium tuberculosis efflux protein A) (not stated | Mycobacterium tuberculosis) (UniProt P9WJY4)",
  "test": "cryo-EM structure; EfpA-EM mixed with anti-BRIL Fab and anti-Fab elbow Nb (1:1.5:2), separated on Superose 6 in 50 mM Tris-Cl pH 7.5, 300 mM NaCl, 0.02% GDN; apo sample gave antiparallel (dominant) and parallel dimers; samples with BRD-8000.3 or BRD-9327 gave antiparallel dimers",
  "data": [
    {"substance": "EfpA^EM (BRIL-P171R EfpA, Mycobacterium tuberculosis efflux protein A) (from UniProt P9WJY4 49-530)", "values": [
      {"measurement": "stoichiometry N", "value": 2}
    ]}
  ]
}
